# Source: publication PMC11117311
# B1: Keratin 18 (K18): S30A (protein)
# parent chain: MSFTTRSTFSTNYRSLGSVQAPSYGARPVSSAASVYAGAGGSGSRISVSRSTSFRGGMGSGGLATGIAGGLAGMGGIQNEKETMQSLNDRLASYLDRVRSLETENRRLESKIREHLEKKGPQVRDWSHYFKIIEDLRAQIFANTVDNARIVLQIDNARLAADDFRVKYETELAMRQSVENDIHGLRKVIDDTNITRLQLETEIEALKEELLFMKKNHEEEVKGLQAQIASSGLTVEVDAPKSQDLAKIMADIRAQYDELARKNREELDKYWSQQIEESTTVVTTQSAEVGAAETTLTELRRTVQSLEIDLDSMRNLKASLENSLREVEARYALQMEQLNGILLHLESELAQTRAEGQRQAQEYEALLNIKVKLEAEIATYRRLLEDGEDFNLGDALDSSNSMQTIQKTTTRRIVDGKVVSETNDTKVLRH
# B2: Keratin 18 (K18): 5S (Ac45SGlcNAc) (protein)
# parent chain: B1 parent chain
# Key:
# [1] = CHX chase 8 h, FLAG-K18 remaining by blot; details: glycan lost; control: FLAG-K18-WT
# [2] = [U-13C6] glucose tracing, LC-MS/MS, HuCCT1; details: glycan lost; control: shK18 + WT
# [3] = immunofluorescence, RBE cells; details: glycan lost; control: FLAG-K18WT
# [4] = HA-ubiquitin, MG-132, anti-FLAG IP, anti-HA blot; details: glycan lost; control: FLAG-K18-WT
# [5] = CHX chase up to 8 h, K18 remaining by blot; details: glycan lost; control: DMSO
Protein,degradation_or_half_life [1],other: TCA cycle metabolite levels [2],other: filament organisation [3],other: ubiquitination [4],degradation_or_half_life [5]
B1,decreases,changes,changes,increases,–
B2,–,–,–,–,decreases
